Test results as given in publication PMC2169435.

Experiments:
[1] = biological target: PS2 COOH-terminal 39-amino acid bait (residues K410-I448) (human) (UniProt P49810); assay: two-hybrid
[2] = biological target: PS1 COOH-terminal bait (human); assay: two-hybrid

Sequence of PS2 COOH-terminal 39-amino acid bait (residues K410-I448) (human) (P49810 410-448): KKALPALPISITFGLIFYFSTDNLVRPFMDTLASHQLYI

Row | Substance | fold beta-galactosidase activity over negative-control baits [1] [fold] | fold beta-galactosidase activity over negative-control baits [2] [fold]
1 | near full-length ubiquilin Y2H prey clone (residues 37-595) (domain or fragment) | > 55 | > 12
2 | ubiquilin Y2H prey clone encoding the COOH-terminal 218 residues (domain or fragment) | > 55 | –
